Reference: US20250002563A1 (UNIVERSITY OF PITTSBURGH OF THE COMMONWEALTH SYSTEM OF …, published 2025)

B1: R117 (VHH)
VHH: HVQLVESGGGLVQAGGSLRLSCAAPGRTFSTSAMGWFRQAPGKEREFVAAIDWSNTNIHYADTVKGRFTISTDTAKNTVYLQMNNLKPEDTAVYYCAQGGWGLTQPISVDYWGKGTQVTVSS
B2: 4P-32 (VHH)
VHH: DVQLVESGGGLVQAGGSLRLTCAASGRTFSSDTMDMGWFRQAPGKERQFVAADAWNDGRTYYADSVKGRFTISRDNAKNTLYLQMNSLKPEDTAVYYCAADTYSNYEKDYSWGYWGQGTQVTVSS
B3: 4P-76 (VHH)
VHH: EVQLVESGGGLVQAGDSLRLSCAASERTGINYAMGWFRQAPGKERDFVAAIGWNGSITKYAESVKGRFTLSRDDAMNTVSLQMNSLKPEDTAVYYCAARIGSIANLQYREYEFAYWGQGTQVTVSS
B4: 4P-89 (VHH)
VHH: HVQLVESGGGLVQAGGSLRLSCAASGRTLTTYSMAWFRQAPGKEREVVAAITPTGFGTYYADFVKGRFTISRNSAKNTVYLQMDSLKPEDTAVYYCAARSEIIIASPTGGEYDYWGQGTQVTVSS
B5: 4P-21 (VHH)
VHH: HVQLVESGGGLAQAGGNLRLSCAASGGTFSDYAMGWFRRPPGKEREFVAAISRGGSTFYADSVKGRFTISRDNAKNTVYLQMTSLKPEDTAVYYCAADRSPLFFGVPRSHGEYDYWGQGTQVTVSS
B6: 4P-28 (VHH)
VHH: QVQLVESGGGLVQAGGSLRLSCAASGRTFSHYPTGWFRQAPGKEREFVSTISESGTSTYYADSVKGRFTISRDNAKNSVYLQMNSLKPEDTALYYCAADTAGRTQYGSSWSTLDGFVYWGQGTQVTVSS
B7: 4P-74 (VHH)
VHH: HVQLVESGGGLVQAGGSLRLSCATSGRTFSTYRMSWFRQAPGKEREFVATIIWSVGSTHYADSVKGRFTISRDNAKNMVYLQMNSLKPEDTAVYYCAAQRSDSSSWGYEDDYDYWGQGTQVTVSS
B8: 5p-15 (VHH)
VHH: QVQLVESGGGLVQPGDSLRLACAASGGTFGYYALGWFRQAPGKEREFVGSITQTGFGTKYADAVKGRFTISRDNAKNTMYLQMNSLKPEDTAVYYCAADPTAQNMGIRDPPYWGQGTQVTVSS
B9: 4P-12 (VHH)
VHH: DVQLVESGGGLVQAGGSLRLSCAASGRTFSSYTMGWFRQAPGKEREFVAVISSGRSTDYADSVKGRFTISRDNAKNTVYLQMNSLKPEDTAVYYCAADQAPLRFSYSLSRDEYDYWGQGTQVTVSS
B10: 5p-17 (VHH)
VHH: QVQLVESGGGLVQAGGSLRVSCAASGRSFSDYAMAWFRQSPGKEREFVAVITSGRSTDYADSVKGRFTISRDNAKNTVYLQMNSLKPEDTAVYYCAADQTPLRFSYSLSRDKYDYWGQGTQVTVSS
B11: 4P-19 (VHH)
VHH: HVQLVESGGGLVQAGGSLRLSCAASGRTVSSEFMGWFRQAPGKEREFVAAITWDGGSTYYTDSVKGRFTISRDNAKNTVYLQMNSLKPEDTAVYYCAADRSIFQSYYSAKYPNNYEYWGQGTQVTVSS
B12: 4P-56 (VHH)
VHH: QVQLVESGGGLVQAGGSLRLSCAASGRTDSISDMGWFRQAPGKEREFVAVVGWSGGGTDYAHSVKGRFTISRDNAKNTVYLQMNSLKPEDTAVYYCAVGSLRVGSFSVEYWGQGTQVTVSS
notes: class IV psNb
B13: 4P-17 (VHH)
VHH: HVQLVESGGGLVQAGASLRLSCAASGRTASNYVMGWFRQAAGKEREFVAHISWSGDETNYADSVRGRFIISRDNAENTVYLQMNSLKPEDTAVYYCAADRGYSLMYYSSREYTYWGQGTQVTVSS
B14: R58 (VHH)
VHH: QVQLVESGGGLVQAGGSLRLSCAASGRDFSSTVMGWFRQAPGKERELVAWMTVTYDITYYADSVKGRFTISKDNAKNTVYLQANSLKPDDTAVYYCASGALRVGSFSPDYWGQGTQVTVSS
B15: 5p-60 (VHH)
VHH: QVQLVESGGGLVQAGGSLRLSCAVSGRTISTFGMGWFRQAPGKEREFVATITRDEDMLLYADSVKGRFTISRDTAKNMVFLQMNSLKIEDTALYYCAVRRDSSWGYSRQSTEYDYWGQGTQVTVSS
notes: class II(A) psNb
B16: 5p-20 (VHH)
VHH: HVQLVESGGGLVQAGGSLRLSCAASGGTFSAYAMGWFRQVPGKEREFVAGIARSGSDYYGDSVKGRFIISRDNTKNTVYLQMNSLKAEDTGVYYCAADRAILYHGLSQRTQAYAYWGPGTQVTVSS
B17: 4P-61 (VHH)
VHH: QVQLVESGGGLVQAGGSLRLSCAASGSTFNTRNIAWYRQAPGKQRELVAGITNAGATIYADSVKGRFTISRDNAKNTMYLQIDSLKPEDTAVYYCNRIVGTYPWGQGTQVTVSS
B18: 4P-85 (VHH)
VHH: QVQLVESGGGLVQAGGSLRLSCAVSGRTVSTYGMAWFRQTPGKKERDFVATITRSEGTTFYADSVKGRFTISRDNAKNTVYLQMNSLKIEDTAVYYCAVRRDSSWGYSRDLFEYDDWGQGTQVTVSS
B19: 4P-26 (VHH)
VHH: QVQLVESGGGLVQAGGSLRLSCAASGDTLRSYNMGWFRQAPGKEREFVAVISWTGVGTYYGDSVKGRFTISRDVIKNTLYLQMDSLKPEDTAIYYCAADSTTYRLHSAGSDYLYWGQGTQVTVSS
B20: R113 (VHH)
VHH: HVQLVESGGGLVQPGGSLRLSCAASGRSFNSYLMGWFRQAPGKEREFVAWISGSPHDIIRYRDSVKDRFTISRDNAKNTVYLQMNSLKPVDTAVYYCAVGSLRVGSFSPDYWGQGTQVTVSS
B21: Nb20 (VHH)
VHH: QVQLVESGGGLVQAGGSLRLSCAVSGAGAHRVGWFRRAPGKEREFVAAIGASGGMTNYLDSVKGRFTISRDNAKNTIYLQMNSLKPQDTAVYYCAARDIETAEYIYWGQGTQVTVSS
B22: Nb21 (VHH)
VHH: QVQLVESGGGLVQAGGSLRLSCAVSGLGAHRVGWFRRAPGKEREFVAAIGANGGNTNYLDSVKGRFTISRDNAKNTIYLQMNSLKPQDTAVYYCAARDIETAEYTYWGQGTQVTVSS
B23: 5p-38 (VHH)
VHH: QVQLVESGGGLVQAGGSLRLSCAAAARFSTSAMGWFRQAPGKEREFVAAISWSNTNTHYADTVKGRFTISADTAKETVDLQMNSLKPEDTAVYYCVQGGWGIRQPIIVDYWGKGTQVTVSS
notes: class II(B) psNb
B24: 5p-35 (VHH)
VHH: HVQLVESGGGLVQAGGSLRLSCAASGRTFSRYAAGWFRQAPGKEREFVAVIEWDGDSAYYADPVKGRFTISRDNAKNTVYLQMNRLKPEDTAVYICAVGGNHYSRSKYYNLDEYDDWGQGTQVTVSS
notes: class II(B) psNb
B25: 5p-182 (VHH)
VHH: EVQLVESGGGLVQTGGSLRLSCALSGYTFSIFPTAWFRQAPGKEREFVAGIRWNGSTRDYTEYADFVKGRFTISRDNAKNMVYLQMISLKPEDTALYYCAASDGVIDGTNANAYRYWGQGTQVTVSS
notes: class I psNb
B26: 5p-18 (VHH)
VHH: EVQLVESGGGLVQAGGSLRLSCEASGRTFSSYAMGWFRQAPGKEREFVAAISQGGSTDYGDSTKGRFTISRDNAKNTVYLQMNSLKPEDTAVYYCAADQTPLRYAYSTRSQDYDYWGQGTQVTVSS
B27: R37 (VHH)
VHH: QVQLVESGGGLVQTGGSLRLSCAASGRTFSNYVMGWFRQAPGKEREFVSSIEWNSENTFYANSVKGRFTISRDNAKNTVYLQMNSLKAEDTAVYYCAADRGSSYYYTRASEYTYWGQGTQVTVSS
B28: 5p-23 (VHH)
VHH: HVQLVESGGGLVQAGDSLRLSCAASGGTFSSYAMGWFRQVPGKEREFVAAISRGGSTDYADSVKGRFTISRDNAKNTVNLQMNSLKPEDTAVYYCAADRSPLFWGMSQSHGEYDYWGQGTQVTVSS

How the values were obtained:
[1] = target: RBDSARS-CoV-2 (SARS-CoV-2 S protein residues 319-539, C-terminal His-tag) (SARS-CoV-2, UniProt P0DTC2 319-539); assay: ELISA
[2] = target: RBDSARS-CoV (SARS-CoV S protein residues 318-510, C-terminal His-tag) (SARS-CoV, UniProt P59594 318-510); assay: ELISA
[3] = target: spike of SARS-CoV-2 Munich strain (authentic virus) (SARS-CoV-2); assay: cell-based or functional assay
[4] = target: SARS-CoV-2 spike on pseudotyped virus particles (Wuhan-Hu-1 strain) (SARS-CoV-2, UniProt P0DTC2 14-1273); assay: cell-based or functional assay

Binder | IC50 [1] | IC50 [2] | PRNT SARS-CoV-2 Munich IC50 [3] | IC50, pseudotyped SARS-CoV-2 neutralization assay (luciferase) [4]
B1 | < 10 nM | 100 to 1000 nM | – | –
B2 | < 10 nM | 1000 to 8000 nM | – | –
B3 | 10 to 100 nM | 1000 to 8000 nM | – | –
B4 | < 10 nM | 10 to 100 nM | – | –
B5 | < 10 nM | < 10 nM | – | –
B6 | 10 to 100 nM | 1000 to 8000 nM | – | –
B7 | < 10 nM | > 8000 nM | – | –
B8 | 10 to 100 nM | 10 to 100 nM | – | –
B9 | < 10 nM | 10 to 100 nM | – | –
B10 | < 10 nM | < 10 nM | – | –
B11 | < 10 nM | 100 to 1000 nM | – | –
B12 | < 10 nM | 10 to 100 nM | – | –
B13 | < 10 nM | 1000 to 8000 nM | – | –
B14 | 10 to 100 nM | 1000 to 8000 nM | – | –
B15 | < 10 nM | < 10 nM | 9.79 nM | –
B16 | < 10 nM | 100 to 1000 nM | – | –
B17 | < 10 nM | 10 to 100 nM | – | –
B18 | < 10 nM | < 10 nM | – | –
B19 | < 10 nM | > 8000 nM | – | –
B20 | < 10 nM | 10 to 100 nM | – | –
B21 | – | – | – | 0.102 nM
B22 | – | – | – | 0.045 nM
B23 | < 10 nM | < 10 nM | 59.9 nM | –
B24 | < 10 nM | < 10 nM | 42.2 nM | –
B25 | < 10 nM | 1000 to 8000 nM | 0.35 nM | –
B26 | < 10 nM | < 10 nM | – | –
B27 | < 10 nM | < 10 nM | – | –
B28 | < 10 nM | 10 to 100 nM | – | –
